Residue numbers refer to the chain shown, from its start. In names and notes the source's numbering stands.
B1: AS170036 VL1VH2 scFv-mIgG2aFc (Fc fusion, not shown: a dimerising Fc or GST)
scFv: QSALTQPRSVSGSPGQSVTISCAGTSSDVGSENYVSWYQQHPGKAPKLMIYQVNKRASGVPDRFSGSKSGNTASLTISGLQAEDEADYYCASYRSSDHNIVFGGGTKLTVLGGGGSGGGGSGGGGSEVQLVESGGGLVQPGGSLRLSCTASGFTFSSYAMSWVRQAPGKGLEWVSTINSGTGSPYYADSVKGRFTISRDNSKNTLYLQMNSLRAEDTAMYYCAKNFFDGSWFLGPPAMDYWGQGTLVTVSS
B2: AS170036 VL2VH1 scFv-mIgG2aFc (Fc fusion, not shown: a dimerising Fc or GST)
scFv: B1 scFv with M49L, V60I, T149A, M219V
B3: AS170036 VL2VH2 scFv-mIgG2aFc (Fc fusion, not shown: a dimerising Fc or GST)
scFv: B1 scFv with M49L, V60I
B4: AS170036 VL1VH1-VLH98V (scFv)
scFv: QSALTQPRSVSGSPGQSVTISCAGTSSDVGSENYVSWYQQHPGKAPKLMIYQVNKRASGVPDRFSGSKSGNTASLTISGLQAEDEADYYCASYRSSDVNIVFGGGTKLTVLGGGGSGGGGSGGGGSEVQLVESGGGLVQPGGSLRLSCAASGFTFSSYAMSWVRQAPGKGLEWVSTINSGTGSPYYADSVKGRFTISRDNSKNTLYLQMNSLRAEDTAVYYCAKNFFDGSWFLGPPAMDYWGQGTLVTVSSHHHHHH
B5: AS170036 VL1VH1-VHS57K (scFv)
scFv: B4 scFv with V98H, S183K
B6: AS170036 VL1VH1-VHS57M (scFv)
scFv: B4 scFv with V98H, S183M
B7: AS170036 VL1VH1-VHS57H (scFv)
scFv: B4 scFv with V98H, S183H
B8: AS170036 VL1VH1-VHG108S (scFv)
scFv: B4 scFv with V98H, G234S
B9: AS170036 VL1VH1-VHG56Y (scFv)
scFv: B4 scFv with V98H, G182Y
B10: AS179723 VL1g1VH1g1 scFv-mIgG2aFc (Fc fusion, not shown: a dimerising Fc or GST)
scFv: QSVLTQPPSASGTPGQRVTISCSGSSNNIGGNYVNWYQQLPGTAPKLLIYDNKNRPSGVPDRFSGSKSGTSASLAISGLQSEDEADYYCASWDDSLSAVVFGGGTKLTVLGGGGSGGGGSGGGGSEVQLVESGGGLVQPGGSLRLSCAASGFTFLNYAMSWVRQAPGKGLEWVSSNSGAGSTYYADSVKGRFTISRDNSKNTLYLQMNSLRAEDTAVYYCAKGTNVGSWSSLHYWGQGTLVTVSS
B11: AS179723 VL1g1VH1g1-N73Y scFv-mIgG2aFc (Fc fusion, not shown: a dimerising Fc or GST)
chain: B10 scFv with N198Y
notes: Humanized
B12: AS179723 VL1g1VH1 scFv-mIgG2aFc (Fc fusion, not shown: a dimerising Fc or GST)
scFv: B10 scFv with A185S
B13: AS179723 VL1VH1 scFv-mIgG2aFc (Fc fusion, not shown: a dimerising Fc or GST)
scFv: B10 scFv with S23T, A185S
B14: AS179723 VL1VH1g1 scFv-mIgG2aFc (Fc fusion, not shown: a dimerising Fc or GST)
scFv: B10 scFv with S23T
B15: AS179732 VL1VH1g1 scFv-mIgG2aFc (Fc fusion, not shown: a dimerising Fc or GST; small tags and cut ends)
scFv: B10 scFv with S23T, N27S, K53S, P56A, A98G, V99A
B16: AS179732 VL1g1VH1g1-N73Y scFv-mIgG2aFc (Fc fusion, not shown: a dimerising Fc or GST)
chain: B10 scFv with N27S, K53S, P56A, A98G, V99A, N198Y
notes: Humanized
B17: AS179732 VL1g1VH1g1 scFv-mIgG2aFc (Fc fusion, not shown: a dimerising Fc or GST; small tags and cut ends)
scFv: B10 scFv with N27S, K53S, P56A, A98G, V99A
B18: AS179732 VL1VH1 scFv-mIgG2aFc (Fc fusion, not shown: a dimerising Fc or GST)
scFv: B10 scFv with S23T, N27S, K53S, P56A, A98G, V99A, A185S
B19: AS179732 VL1g1VH1 scFv-mIgG2aFc (Fc fusion, not shown: a dimerising Fc or GST; small tags and cut ends)
scFv: B10 scFv with N27S, K53S, P56A, A98G, V99A, A185S

molecular target: T1, AFP158/HLA-A*02:01 complex (human); assay: SPR, scFv-mIgG2aFc from supernatant captured, complex as analyte
T1 construct: biotinylated on the BSP by BirA for ELISA and panning; also called biotinylated AFP158/HLA-A*02:01 complex; Bio-AFP158
Experimental: (§1) The binding affinity between selected antibodies and AFP158/HLA-A*02:01 complex was determined by surface plasmon resonance (SPR) on a BIAcore T200 instrument (GE Healthcare). The experiment was carried out as follows. The purified sdAb/scFv-mIgG2aFc protein were captured through mIgG2a-Fc onto the sensorchip. […] On-rate (kₐ) and off-rate (kd) were calculated based on association and dissociation curve, and were used to estimate the equilibrium dissociation constant (KD).
(§2) Humanized heavy chains and light chains were combined, and used to produce a series of humanized antibodies. These antibodies were synthesized as scFv-mIgG2aFc and transiently produced using HEK293 cells. The antibodies in the supernatant were subjected to SPR affinity assessment.

| Binder | Kd | koff | kon |
| --- | --- | --- | --- |
| B1 | 380 nM | 0.071 s⁻¹ | 190000 M⁻¹ s⁻¹ |
| B2 | 340 nM | 0.095 s⁻¹ | 280000 M⁻¹ s⁻¹ |
| B3 | 390 nM | 0.072 s⁻¹ | 190000 M⁻¹ s⁻¹ |

molecular target: OR6C1 peptide/HLA-A*02:01 complex (recombinant) (human); assay: SPR

| Binder | binding result |
| --- | --- |
| B4 | no binding |

molecular target: PTP4A1 peptide/HLA-A*02:01 complex (recombinant) (human); assay: SPR

| Binder | binding result |
| --- | --- |
| B4 | no binding |
| B5 | no binding (tested: all below 3.5 RU) |
| B6 | no binding (tested: all below 3.5 RU) |
| B7 | no binding (tested: all below 3.5 RU) |
| B8 | no binding (tested: all below 3.5 RU) |
| B9 | no binding (tested: all below 3.5 RU) |

molecular target: CDC14A peptide/HLA-A*02:01 complex (recombinant) (human); assay: SPR

| Binder | binding result |
| --- | --- |
| B4 | no binding |
| B5 | no binding (tested: all below 3.5 RU) |
| B6 | no binding (tested: all below 3.5 RU) |
| B7 | no binding (tested: all below 3.5 RU) |
| B8 | no binding (tested: all below 3.5 RU) |
| B9 | no binding (tested: all below 3.5 RU) |

molecular target: RCL1 peptide/HLA-A*02:01 complex (recombinant) (human, UniProt P16213 21-119 (Pongo pygmaeus entry)); assay: SPR

| Binder | binding result |
| --- | --- |
| B4 | no binding |
| B5 | no binding (tested: all below 3.5 RU) |
| B6 | no binding (tested: all below 3.5 RU) |
| B7 | no binding (tested: all below 3.5 RU) |
| B8 | no binding (tested: all below 3.5 RU) |
| B9 | no binding (tested: all below 3.5 RU) |

molecular target: OR1I1 peptide/HLA-A*02:01 complex (recombinant) (human); assay: SPR

| Binder | binding result |
| --- | --- |
| B4 | no binding |
| B5 | no binding (tested: all below 3.5 RU) |
| B6 | no binding (tested: all below 3.5 RU) |
| B7 | no binding (tested: all below 3.5 RU) |
| B8 | no binding (tested: all below 3.5 RU) |
| B9 | no binding (tested: all below 3.5 RU) |

molecular target: BRCA2 peptide/HLA-A*02:01 complex (recombinant) (human); assay: SPR

| Binder | binding result |
| --- | --- |
| B4 | no binding |
| B5 | no binding (tested: all below 3.5 RU) |
| B6 | no binding (tested: all below 3.5 RU) |
| B7 | no binding (tested: all below 3.5 RU) |
| B8 | no binding (tested: all below 3.5 RU) |
| B9 | no binding (tested: all below 3.5 RU) |

molecular target: NR2E1 peptide/HLA-A*02:01 complex (recombinant) (human); assay: SPR

| Binder | binding result |
| --- | --- |
| B4 | no binding |
| B5 | no binding (tested: all below 3.5 RU) |
| B6 | no binding (tested: all below 3.5 RU) |
| B7 | no binding (tested: all below 3.5 RU) |
| B8 | no binding (tested: all below 3.5 RU) |
| B9 | no binding (tested: all below 3.5 RU) |

molecular target: RP1 peptide/HLA-A*02:01 complex (recombinant) (human, UniProt P16213 21-119 (Pongo pygmaeus entry)); assay: SPR

| Binder | binding result |
| --- | --- |
| B4 | no binding |
| B5 | no binding (tested: all below 3.5 RU) |
| B6 | no binding (tested: all below 3.5 RU) |
| B7 | no binding (tested: all below 3.5 RU) |
| B8 | no binding (tested: all below 3.5 RU) |
| B9 | no binding (tested: all below 3.5 RU) |

molecular target: ATG9A peptide/HLA-A*02:01 complex (recombinant) (human); assay: SPR

| Binder | binding result |
| --- | --- |
| B4 | no binding |
| B5 | no binding (tested: all below 3.5 RU) |
| B6 | no binding (tested: all below 3.5 RU) |
| B7 | no binding (tested: all below 3.5 RU) |
| B8 | no binding (tested: all below 3.5 RU) |
| B9 | no binding (tested: all below 3.5 RU) |

molecular target: ZNF566 peptide/HLA-A*02:01 complex (recombinant) (human); assay: SPR

| Binder | binding result |
| --- | --- |
| B4 | no binding |
| B5 | no binding (tested: all below 3.5 RU) |
| B6 | no binding (tested: all below 3.5 RU) |
| B7 | no binding (tested: all below 3.5 RU) |
| B8 | no binding (tested: all below 3.5 RU) |
| B9 | no binding (tested: all below 3.5 RU) |

molecular target: ARNTL peptide/HLA-A*02:01 complex (recombinant) (human); assay: SPR

| Binder | binding result |
| --- | --- |
| B4 | no binding |

molecular target: OR51B6 peptide/HLA-A*02:01 complex (recombinant) (human); assay: SPR

| Binder | binding result |
| --- | --- |
| B4 | no binding |
| B5 | no binding (tested: all below 3.5 RU) |
| B6 | no binding (tested: all below 3.5 RU) |
| B7 | no binding (tested: all below 3.5 RU) |
| B8 | no binding (tested: all below 3.5 RU) |
| B9 | no binding (tested: all below 3.5 RU) |

molecular target: T1, AFP158/HLA-A*02:01 complex; assay: SPR; vs AS170036 VL1VH1

| Binder | Affinity increase |
| --- | --- |
| B4 | > 2 fold |
| B5 | > 2 fold |
| B6 | > 2 fold |
| B7 | > 2 fold |
| B8 | > 2 fold |
| B9 | > 2 fold |

molecular target: T1, AFP158/HLA-A*02:01 complex; assay: SPR; vs AS170036 VL1VH1; remark: another data set of the same source
Experimental: The experiment was carried out as follows. The crude scFv protein were captured onto the sensorchip. Different concentrations (320, 160, 40 nM) of AFP158/HLA-A*02:01 complex flowed over the sensorchip surface, and were allowed to bind the antibody fragment for 100 s followed by injection of the running buffer to allow dissociation of the complex. On-rate (kd) and off-rate (kd) were calculated based on association and dissociation curve, and were used to estimate the equilibrium dissociation constant (KD).

| Binder | Affinity increase |
| --- | --- |
| B5 | 4.4 fold |
| B6 | 2.7 fold |
| B7 | 6.9 fold |
| B8 | 2.8 fold |
| B9 | 6.6 fold |

molecular target: T1, AFP158/HLA-A*02:01 complex; assay: SPR, scFv-mIgG2aFc from supernatant captured, complex as analyte; remark: another data set of the same source
Experimental: as §1, §2

| Binder | Kd | koff | kon |
| --- | --- | --- | --- |
| B10 | 320 nM | 0.029 s⁻¹ | 91000 M⁻¹ s⁻¹ |
| B11 | 56 nM | – | – |
| B12 | 360 nM | 0.034 s⁻¹ | 93000 M⁻¹ s⁻¹ |
| B13 | 320 nM | 0.031 s⁻¹ | 98000 M⁻¹ s⁻¹ |
| B14 | 310 nM | 0.03 s⁻¹ | 99000 M⁻¹ s⁻¹ |

molecular target: T1, AFP158/HLA-A*02:01 complex; assay: as above; remark: another data set of the same source
Experimental: as §1, §2

| Binder | Kd | koff | kon |
| --- | --- | --- | --- |
| B15 | 520 nM | 0.065 s⁻¹ | 130000 M⁻¹ s⁻¹ |
| B16 | 54 nM | – | – |
| B17 | 450 nM | 0.057 s⁻¹ | 130000 M⁻¹ s⁻¹ |
| B18 | 440 nM | 0.056 s⁻¹ | 130000 M⁻¹ s⁻¹ |
| B19 | 450 nM | 0.056 s⁻¹ | 120000 M⁻¹ s⁻¹ |

molecular target: T1, AFP158/HLA-A*02:01 complex; assay: SPR, crude scFv captured;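 also: Peptide–MHC complex flowed at several concentrations over sensorchip-captured scFv, Kd derived from on- and off-rates obtained from the association and dissociation curves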

| Binder | Kd |
| --- | --- |
| B5 | 56 nM |
| B6 | 90 nM |
| B7 | 35 nM |
| B8 | 96 nM |
| B9 | 35 nM |

Reference: patent US20240279318A1 (NANJING LEGEND BIOTECH, published 2024)
